Measurements taken from PMC10666288, “Unveiling the Catalytic Mechanism of a Processive Metalloaminopeptidase” (Biochemistry, 2023).

Experiments:
[1] = system: CC(C)C[C@H](N)C(=O)Nc1ccc([N+](=O)[O-])cc1; assay: purified protein, by the assay type; conditions: 25.0 °C
[2] = system: N=C(N)NCCC[C@H](N)C(=O)Nc1ccc([N+](=O)[O-])cc1; assay: purified protein, by the assay type; conditions: other: aa-pNA varied, 3 mM MnCl2, 100 nM PaPepA, pH 8.0, 25 °C, pH 8.0

Substance “PaPepA (Pseudomonas aeruginosa UCBPP-PA14)” has a Km ([1]; other: 5 % PEG 8000, Leu-pNA varied) of 110 µM, a Km ([1]; other: H2O (0% PEG-8000), Leu-pNA varied) of 86.9 µM and a Km [2] of 120 ± 20 µM. The kcat [2] was 0.052 s⁻¹ and the kcat/Km [2] was 440 M⁻¹ s⁻¹.
